From US20210388081A1 (Memorial Sloan Kettering, published 2021)

Assays:
SLAMF9 protein = SLAMF9 protein (UniProt Q96A28 19-236, limits assumed); assay: phage clone on SLAMF9 protein
[1] = biological target: T1, FcRL6, overexpressed on 3T3 cells (UniProt Q6DN72 20-434, limits assumed); assay: phage clone on 3T3-FcRL6 cells
T1 construct: whole, on cells
T1 sequence (looked up): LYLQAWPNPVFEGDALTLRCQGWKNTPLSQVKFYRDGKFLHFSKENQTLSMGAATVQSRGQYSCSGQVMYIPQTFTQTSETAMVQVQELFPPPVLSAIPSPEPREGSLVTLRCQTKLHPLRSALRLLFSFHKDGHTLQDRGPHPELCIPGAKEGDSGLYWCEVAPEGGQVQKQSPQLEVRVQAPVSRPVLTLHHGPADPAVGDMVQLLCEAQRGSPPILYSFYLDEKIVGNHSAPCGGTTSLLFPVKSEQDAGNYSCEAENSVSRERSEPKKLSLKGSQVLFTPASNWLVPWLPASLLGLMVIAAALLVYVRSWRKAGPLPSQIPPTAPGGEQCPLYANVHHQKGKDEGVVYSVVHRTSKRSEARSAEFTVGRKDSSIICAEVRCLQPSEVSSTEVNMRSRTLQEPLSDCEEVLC

[2] = biological target: T2, FcRL4, overexpressed on 3T3 cells (UniProt Q96PJ5 20-515, limits assumed); assay: phage clone on 3T3-FcRL4 cells
T2 construct: whole, on cells
T2 sequence (looked up): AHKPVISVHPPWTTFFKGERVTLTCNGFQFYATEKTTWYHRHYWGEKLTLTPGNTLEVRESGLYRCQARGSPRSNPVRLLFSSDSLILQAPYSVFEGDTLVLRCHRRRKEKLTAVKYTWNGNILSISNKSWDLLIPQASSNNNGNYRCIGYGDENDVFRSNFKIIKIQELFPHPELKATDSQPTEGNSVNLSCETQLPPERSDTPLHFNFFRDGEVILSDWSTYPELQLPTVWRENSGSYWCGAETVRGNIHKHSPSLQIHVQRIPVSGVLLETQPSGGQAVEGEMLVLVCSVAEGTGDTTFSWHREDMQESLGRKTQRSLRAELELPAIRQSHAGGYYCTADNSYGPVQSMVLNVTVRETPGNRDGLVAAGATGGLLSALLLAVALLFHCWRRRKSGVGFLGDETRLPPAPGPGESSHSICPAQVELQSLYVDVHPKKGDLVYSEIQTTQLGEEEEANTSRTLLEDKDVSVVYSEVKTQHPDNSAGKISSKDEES

Measured: binding result

Sequence of SLAMF9 protein (Q96A28 19-236 limits assumed): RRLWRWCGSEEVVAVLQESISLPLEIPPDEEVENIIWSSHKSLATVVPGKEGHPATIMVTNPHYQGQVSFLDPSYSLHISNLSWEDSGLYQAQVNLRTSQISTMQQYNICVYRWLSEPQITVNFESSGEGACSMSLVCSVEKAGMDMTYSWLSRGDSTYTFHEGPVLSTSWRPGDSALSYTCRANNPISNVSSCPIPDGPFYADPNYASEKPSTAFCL

B1: ET200-026 (scFv)
scFv: NFMLTQPHSVSESPGKTVTISCTGSSGSIASNYVQWYQQRPGSAPTTVIYEDNQRPSGVPDRFSGSIDSSSNSASLTISGLKTEDEADYYCQSYDSSNWVFGGGTKLTVLGSRGGGGSGGGGSGGGGSLEMAEVQLVQSGAEVKKPGSSVKVSCKASGGTFSSYAISWVRQAPGQGLEWMGGIIPIFGTANYAQKFQGRVTITADESTSTAYMELSSLRSEDTAVYYCARNNHYYNDYWGQGTLVTVSSTSGQAGQHHHHHHGAYPYDVPDYAS
notes: screened as phage clone; entry is VL-linker-VH-His tag-HA tag
no binding: all assays above

B2: ET200-035 (scFv)
scFv: NFMLTQPHSVSESPGKTVTISCTRSSGSIASNYVQWYQQRPGSAPTTVIYEDNQRPSGVPDRFSGSIDSSSNSASLTISGLKTEDEADYYCQSYDSTNWVFGGGTKLTVLGSRGGGGSGGGGSGGGGSLEMAQVQLVQSGAEVKKPGSSVKVSCKASGGTFSSYAISWVRQAPGQGLEWMGGIIPIFGTANYAQKFQGRVTITADESTSTAYMELSSLRSEDTAVYYCARYNYYFNDYWGQGTLVTVSSTSGQAGQHHHHHHGAYPYDVPDYAS
notes: as for B1
no binding: all assays above

B3: ET200-033 (scFv)
scFv: NFMLTQPHSVSESPGKTVTISCTGSSGSIASNYVQWYQQRPGSAPTTVIYEDNQRPSGVPDRFSGSIDSSSNSASLTISGLKTEDEADYYCQSYDSSNHWVFGGGTKLTVLGSRGGGGSGGGGSGGGGSLEMAQVQLQQWGAGLLKPSETLSLTCAVYGGSFSGYYWSWIRQPPGKGLEWIGEITHSGRSNYNPSLKSRVTISVDTSKNQFSLKLSSVTAADTAVYYCARSSIMSDYWGQGTLVTVSSTSGQAGQHHHHHHGAYPYDVPDYAS
notes: as for B1
no binding: all assays above

B4: ET200-030 (scFv)
scFv: QSVVTQPPSVSGAPGQRVTISCTGSSSNIGAGYDVNWYQQFPGTAPKLLIYGNSNRPSGVPDRFSGSKSGTSASLAITGLQAEDEADYYCQSYDSSLSGSYVFGTGTKVTVLGSRGGGGSGGGGSGGGGSLEMAQMQLVQSGAEVKKPGASVKVSCKASGYTLTELSMHWVRQAPGKGLEWMGGFDPEDGETIYAQKFQGRVTMTEDTSTDTAYMELSSLRSEDTAVYYCARMSSMYYDWGQGTLVTVSSTSGQAGQHHHHHHGAYPYDVPDYAS
notes: as for B1
no binding: all assays above

B5: ET200-031 (scFv)
scFv: SYVLTQPPSVSVAPGKTARITCGGNNIGSKSVHWYQQKPGQAPVLVIYYDSDRPSGIPERFSGSNSGNTATLTISRVEAGDEADYYCQVWDSSSDYVFGTGTKVTVLGSRGGGGSGGGGSGGGGSLEMAEVQLVETGGGLVKPGGSLRLSCAASGFTVSDYYMSWIRQAPGKGLEWISYISGSGNSIYYADSVKGRFTISRDNAKNSLDLQMTSLRAEDTAVYYCARSTKFDYWGQGTLVTVSSTSGQAGQHHHHHHGAYPYDVPDYAS
notes: screened as phage clone; entry is VL-linker-VH-His tag-HA tag; also called ET200-31
no binding: all assays above

B6: ET200-032 (scFv)
scFv: LPVLTQPPSASGTPGQRVTISCSGSSSNVGSYTVNWYRQLPGTAPTLLIYNNNQRPSGVPDRFSDSKSGTSASLTISGLQPEDEADYYCAAWDDRLGGYVFGTGTKVTVLGSRGGGGSGGGGSGGGGSLEMAEVQLVQSGAEVKKPGESLKISCKGSGYSFTNYWIGWVRQMPGKGLEWMGIIYPGDSDTRYSPSFQGQVTISADKSISTAYLQWSSLKASDTAMYYCARSTGSSHMSDEWGQGTLVTVSSTSGQAGQHHHHHHGAYPYDVPDYAS
notes: as for B1
no binding: all assays above

B7: ET200-029 (scFv)
scFv: QAVLTQPPSVSVAPGKTARVTCGGNNIGSESVHWYQQKPGQAPVLVIYYDTDRPSGIPERFSGSHSGTTATLTISRVEAGDEADYYCQVWDSSRDHVVFGGGTKLTVLGSRGGGGSGGGGSGGGGSLEMAQVQLVQSGGGVVQPGRSLRLSCAASGFTFSSYAMHWVRQAPGKGLEWVAVISYDGSNKYYADSVKGLFTISRDNSKNTLYLQMNSLRAEDTAVYYCARSYFTSGFYDYWGQGTLVTVSSTSGQAGQHHHHHHGAYPYDVPDYAS
notes: as for B1
no binding: all assays above

B8: ET200-028 (scFv)
scFv: QSVLTQPPAASGTPGQRVTISCSGGVSNIGSGALNWYQQLPGTAPKLLIYSYNQRPSGVSDRFSGSRSATSASLAISGLQSEDEADYYCATWDDSVNGWVFGGGTKLTVLGSRGGGGSGGGGSGGGGSLEMAQVQLVQSGAEVKKPGDSVKVSCKPSGYNFLNYGINWVRQAPGQGLEWMGWISTYTGNTNYAQKLQGRVTFTTDTSTSTAYMEMRSLRSDDTAVYYCARDLYYYEGVDYWGQGTLVTVSSTSGQAGQHHHHHHGAYPYDVPDYAS
notes: as for B1
no binding: all assays above

B9: ET200-041 (scFv)
scFv: NFMLTQPHSVSGSPGKTVTISCTGSSGSIADNFVQWYQQRPGGVPTTVIFNDDERPSGVPDRFSGSIDTSSNSASLTISGLKTEDEADYYCQSYDNNNRGVFGGGTKLTVLGSRGGGGSGGGGSGGGGSLEMAQVQLVQSGAEVKKPGSSVKVSCKASGGTFSSYAISWVRQAPGQGLEWMGWMNPNSGNTGYAQKFQGRVTMTRNTSISTAYMELSNLRSEDTAVYYCARYYSYGYDWGQGTLVTVSSTSGQAGQHHHHHHGAYPYDVPDYAS
notes: as for B1
no binding: all assays above

B10: ET200-034 (scFv)
scFv: QSVLTQPPSVSGAPGQRVTISCTGSTSNIGAGYDVHWYQQLPGTAPKLLINNNRNRPSGVPDRFSGSKSGTSATLGITGLQTGDEADYYCGTWDGSLTGAVFGGGTKLTVLGSRGGGGSGGGGSGGGGSLEMAEVQLVQSGAEVKKPGSSVKVSCKASGGTFSSYAISWVRQAPGQGLEWMGGIIPIFGTANYAQKFQGRVTITADESTSTAYMELSSLRSEDTAVYYCARGSALDHYDRWGQGTLVTVSSTSGQAGQHHHHHHGAYPYDVPDYAS
notes: as for B1
no binding: all assays above

B11: ET200-027 (scFv)
scFv: QSVLTQPPSVSGAPGQGVTIPCTGSSSNIGAGYDVHWYQQLPGTAPKLLIYGNNNRPSGVPDRFSGSRSGSSASLAITGLQAEDEADYYCQSYDSSLSDVVFGGGTKVTVLGSRGGGGSGGGGSGGGGSLEMAEVQLVQSGAEVKKPGATVKISCKVSGYTFTDYYMHWVQQAPGKGLEWMGLVDPEDGETIYAEKFQGRVTITADTSTDTAYMELSSLRSEDTAVYYCARYWSYSFDYLYMPEGNDWWGQGTLVTVSSTSGQAGQHHHHHHGAYPYDVPDYAS
notes: as for B1
no binding: all assays above

B12: ET200-002 (scFv)
scFv: NFMLTQPHSVSESPGKTVTISCTRSSGSIASNYVQWYQQRPGSAPTTVIYEDNQRPSGVPDRFSGSIDSSSNSASLTISGLKTEDEADYYCQSYDSSNSVVFGGGTKLTVLGSRGGGGSGGGGSGGGGSLEMAQVQLVQSGTEVKKPGASVRVACKASGYPFNKYDINWVRQAPGQGLEWMGGIIPIFRTTNYAQKFQGRVTITADESTSTAYMELSSLRSEDTAVYYCAREWFYWDIWGQGTLVTVSSTSGQAGQHHHHHHGAYPYDVPDYAS
notes: as for B1
no binding: all assays above

B13: ET200-040 (scFv)
scFv: QSVLTQPPSVSGAPGQRVTISCTGSSSNIGAGYDVHWYQQLPGTAPKLLIYGNSNRPSGVPDRFSGSKSGTSASLAITGLQAEDEADYYCQSYDSSLSGYVFGTGTKVTVLGSRGGGGSGGGGSGGGGSLEMAQVQLVQSGAEVKKPGASVKVSCKVSGYTLTELSMHWVRQAPGKGLEWMGGFDPEDGETIYAQKFQGRVTMTEDTSTDTAYMELSSLRSEDTAVYYCARYSGVYYDWGQGTLVTVSSTSGQAGQHHHHHHGAYPYDVPDYAS
notes: as for B1
no binding: all assays above

B14: ET200-038 (scFv)
scFv: QSVLTQPPSVSGAPGQRVTISCTGSSSNIGAGFDVHWYQLLPGTAPKLLIYANSNRPSGVPDRFSGSKSGTSASLAITGLLAEDEADYYCQSYDSSLSGVVFGGGTKLTVLGSRGGGGSGGGGSGGGGSLEMAQVQLVQSGAEVKKPGSSVKVSCKASGGTFSSYAISWVRQAPGQGLEWMGGIIPIFGTANYAQKFQGRVTITADESTSTAYMELSSLRSEDTAVYYCARGASFDRHDNWGQGTLVTVSSTSGQAGQHHHHHHGAYPYDVPDYAS
notes: as for B1
no binding: all assays above
